Source: publication PMC7515728, “YdiV regulates Escherichia coli ferric uptake by manipulating the DNA-binding ability of Fur in a SlyD-dependent manner” (Nucleic Acids Research, 2020)
Where a chain is given by its changes, count along the chain named.

Experiments:
[1] = target: Fur in the bacterial two-hybrid plasmid pUT18C-fur (Escherichia coli) (UniProt P0A9A9); assay: two-hybrid; bacterial two-hybrid by reconstitution of adenylate cyclase (T18/T25) in E. coli BTH101; LB-X-Gal plates and β-galactosidase assay (Miller method)
Fur P29A = target: T1, Fur P29A (Escherichia coli, UniProt P0A9A9 1-148, P29A); assay: EMSA; 100 uM MnCl2; 30 uM protein; EMSA: 10 mM Tris-HCl pH 7.5, 1 mM MgCl2, 40 mM KCl, 0.1 mg/ml BSA, 5% glycerol, +/-100 uM MnCl2, 25 nM DNA, 37 C 15 min; FP: 10 mM Tris-HCl pH 7.5, 75 mM NaCl; settings: protein: recombinant; tags: N-terminal His (PreScission-cleavable, removed if necessary); chain copies: 2; label: FAM; blunt
T1 sequence: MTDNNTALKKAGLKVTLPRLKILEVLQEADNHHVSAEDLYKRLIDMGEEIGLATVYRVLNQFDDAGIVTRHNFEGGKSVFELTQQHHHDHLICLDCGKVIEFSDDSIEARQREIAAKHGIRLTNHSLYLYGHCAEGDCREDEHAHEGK

Fur P18AYdiV = target: T2, Fur P18AYdiV (Escherichia coli, UniProt P0A9A9 1-148, P18A); assay: as above; settings: protein: recombinant; tags: N-terminal His (PreScission-cleavable, removed if necessary); chain copies: 2; label: FAM; blunt
T2 sequence: T1 sequence with P18A, A29P

Fur P18A = target: T3, Fur P18A (Escherichia coli, UniProt P0A9A9 1-148, P18A); assay: as above; settings: protein: recombinant; tags: N-terminal His (PreScission-cleavable, removed if necessary); chain copies: 2; label: FAM; blunt
T3 sequence: T1 sequence with P18A, A29P

Fur P18ASlyD = target: T4, Fur P18ASlyD (Escherichia coli, UniProt P0A9A9 1-148, P18A); assay: as above; settings: protein: recombinant; tags: N-terminal His (PreScission-cleavable, removed if necessary); chain copies: 2; label: FAM; blunt
T4 sequence: T1 sequence with P18A, A29P

Zn1Fur = target: T5, Zn1Fur (Escherichia coli, UniProt P0A9A9 1-148); assay: FP; EDTA-treated Fur, no Mn2+ added; EMSA: 10 mM Tris-HCl pH 7.5, 1 mM MgCl2, 40 mM KCl, 0.1 mg/ml BSA, 5% glycerol, +/-100 uM MnCl2, 25 nM DNA, 37 C 15 min; FP: 10 mM Tris-HCl pH 7.5, 75 mM NaCl; settings: protein: recombinant; tags: N-terminal His (PreScission-cleavable, removed if necessary); chain copies: 2; label: FAM; blunt
T5 sequence: T1 sequence with A29P

[2] = target: the molecule itself; assay: SEC; Superdex 200, 10 mM Tris-HCl pH 8.0, 100 mM NaCl, proteins at 100-200 uM, 4°C; 62 kDa and 27 kDa proteins as markers

YdiV in the bacterial two-hybrid plasmid pKNT25-ydiV (from UniProt P76204 1-237) (natural protein)
interaction strength relative to the negative control (β-galactosidase) (times the negative control) [1]: 3

SlyD in the bacterial two-hybrid plasmid pKNT25-slyD (from UniProt P0A9K9 1-196) (natural protein)
interaction strength relative to the negative control (β-galactosidase) (times the negative control) [1]: 6

B1: Fur box DNA (dsDNA)
DNA 1: GATAATGATAATGATAATGATAATGATAATGA
DNA 2: TCATTATCATTATCATTATCATTATCATTATC
binding result (Fur P29A): binds | binding result (Fur P18AYdiV): binds | binding result (Fur P18A): binds | binding result (Fur P18ASlyD): binds | Kd (Zn1Fur): 7.2 µM

B2: native Fur protein (ferric uptake regulator, overexpressed without YdiV) (natural protein, Escherichia coli, UniProt P0A9A9 1-148, looked up)
chain: T1 sequence with A29P
notes: Ferric uptake regulator Fur, Escherichia coli, from plasmid pGL01fur; In the pull-down for mass spectrometry Fur was held on Ni-NTA by its N-terminal His-tag and then released by PreScission cleavage; printed mass 17 089 Da per monomer; also called Zn1Fe1Fur; source: E. coli BL21 harboring pGL01fur; in lysate on Ni-NTA (pull-down) and purified (Ni-NTA, Superdex 200); not shown: His-tag, …
stoichiometry N [2]: 2

B3: Fur^YdiV protein (Fur co-expressed with untagged YdiV) (natural protein, Escherichia coli, UniProt P0A9A9 1-148, looked up)
chain: T1 sequence with A29P
notes: Ferric uptake regulator Fur, Escherichia coli, from plasmid pGL01fur, co-expressed with YdiV; also called Zn1Fe1Fur^YdiV; source: E. coli BL21 harboring pGL01fur and pACYCydiV; in lysate on Ni-NTA (pull-down) and purified (Ni-NTA, Superdex 200); not shown: His-tag, N-terminal, kept
stoichiometry N [2]: 2
